Test results from patent publication US5807824A, “C5A receptor antagonists having substantially no agonist activity” (priority 1995, dated 1998).
Where a SMILES comes first, the peptide text is derived from it.

Columns and labels:
C5a receptor [1] = target: T1, C5a receptor (Homo sapiens, UniProt P21730); test: C5a induced Ca++ rise assay in fura-2 loaded neutrophils; type: cell-based; conditions: for IC50 / EC50: Table 6, Example 10 comparison with decapeptide; for Concentration up to which tested with agonist activity not detected: calcium rise assay
T1 construct: Neutrophils were purified from human peripheral blood; endogenous in cells; host or cells: neutrophils from human peripheral blood
T1 sequence (P21730 1-350): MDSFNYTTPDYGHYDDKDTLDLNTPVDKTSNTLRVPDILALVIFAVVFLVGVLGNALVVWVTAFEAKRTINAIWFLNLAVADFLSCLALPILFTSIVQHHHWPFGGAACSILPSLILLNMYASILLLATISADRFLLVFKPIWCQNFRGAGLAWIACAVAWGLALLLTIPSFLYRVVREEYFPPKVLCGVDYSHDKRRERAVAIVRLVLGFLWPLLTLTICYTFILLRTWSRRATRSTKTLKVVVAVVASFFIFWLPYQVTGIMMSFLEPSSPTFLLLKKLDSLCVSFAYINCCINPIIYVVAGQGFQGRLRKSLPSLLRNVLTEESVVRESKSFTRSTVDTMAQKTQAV
Source text: The antagonism of the instant C5a analogues may be quantified as an IC50 in the calcium rise assay disclosed in Seligmann et al., Agents and Actions 21:375-378 (1987), described in detail in Example 7.
See Hugli et al., CRC Crit. Rev. Immunol. 1:321-326 (1981) and PCT WO 92/10205. A quantitative measure of this property may also be obtained using the calcium rise assay disclosed in Seligmann et al., supra, also described in Example 7. EC50 is a measure of agonistic activity.
Recombinant human C5a was dissolved in Hanks buffer containing 0.01% Tween-20, and all stock dilutions of C5a were made in this buffer. The acetoxymethyl ester of fura-2 (fura 2AM, Molecular Probes) was dissolved in DMSO. Neutrophils were purified from human peripheral blood by sedimentation in 6% hetastarch (HESPAN, DuPont, Waukegan, Ill., followed by counter flow elutriation as described in Chapman-Kirkland et al., J. Immunol. Meth. 142:95-104 (1991). Purified cells (2×10^6/ ml) were mixed with 0.2 uM fura- 2AM and incubated for 30 min at 37° C. in HEPES buffered Hanks solution without calcium or magnesium. Fifteen minutes before the assay, the cell suspension was transferred to a curvette containing a stir bar and calcium was added to 1 mM. The cell suspension was incubated with stirring at 37° C. Assays were terminated within 5 h of cell purification and a standard control response was obtained periodically to insure that the cell responses were not changing over the time of the experiment. The amount of fluorescence was determined using an SLM 8000 spectrofluorometer (SLM-Aminco Instruments, Urbana, Ill.). Curvettes were placed in the fluorometer and after obtaining a baseline for 10 sec, the C5a receptor antagonists to be tested for antagonistic properties were added and any change in fluoresence excitation ratio of 340 nm/380 nm (emission of 510 nm) was measured. Forty seconds after analogue addition, a challenge dose of C5a was added to a final concentration of 100 pM and the resulting change in excitation ratio was measured.
IC50 values were used as a measure of antagonist potency. These values are defined as the concentration of C5a analogue needed to reduce the calcium rise response of the 100 pM C5a challenge dose by 50%. EC50 values were used as a measure of agonist potency. […]

C5a receptor [2] = target: T1, C5a receptor; test: Receptor binding assay: displacement of [125I]Bolton-Hunter labelled C5a from PMNL membranes
Method: C5a and C5a receptor antagonists were tested for their affinity for the C5a receptor. […] PMNLs were resuspended in Hanks balanced salt solution, without Ca^++ and Mg^++ and which contained 10 mM HEPES at pH 7.3, 2.5 mM MgCl2, 100 units/ml DNAse I, 0.1 mM PMSF, 10 μg/ml aprotonin and 10 μg/ml leupeptin. They were then equilibrated at 400 psi for 20 min at 4° C. in a nitrogen cavitation bomb. After evacuation into 3 volumes 0.5M KHCO3 containing 25 mM EDTA and the protease inhibitors listed above, the gelatinous material was removed with forceps and the mixture was centrifuged at 400×g for 10 min at 4° C. The resulting supernatant was centrifuged at 50,000×g for 60 min at 4° C. The pellets from the aliquots representing 200×10^6 cells were stored at -70° C. For binding studies, these membranes were resuspended at an equivalent of 20×10^6 cells/ml in 50 mM HEPES at pH 7.3, containing 1 mM CaCl2, 5 mM MgCl2, 0.1 mM PMSF, 0.1% bacitracin and 0.5% BSA.
Nonspecific binding was determined in the presence of 10 nM unlabelled C5a. The binding reaction was initiated by the addition of the PMNL membranes and was continued for 120 min at 4° C. Bound and free radioactivity were separated by vacuum filtration through GF/C glass fiber filters (Whatman), pretreated for 90 min with 0.05% PEI (polyethyleneimine) using a Cell Harvester (Brandel, Gaithersburg, Md.). Filters were washed with 3×5 ml of ice-cold 5 mM Tris buffer at pH 7.4 and counted in a multiwell Gamma counter (Genesys). Data were analyzed using the non-linear regression analysis program, RS/1 (Bolt, Beranek and Newman, Boston) and expressed as IC50 values. The results are set forth below in Table 4 as Ki values using the Cheng-Presoff equation. See Braunwalder et al., supra.

[3] = Table 6, Example 10 comparison with decapeptide
[4] = Table 4, [125I]BH-C5a 4.0 pM, PMNL membranes, Cheng-Prusoff

For `CC[C@H](C)[C@H](N)C(=O)N[C@@H](CO)C(=O)N[C@@H](Cc1ccccc1)C(=O)N[C@@H](CCCCN)C(=O)N[C@@H](CC(=O)O)C(=O)N[C@@H](CCSC)C(=O)N[C@@H](CCC(N)=O)C(=O)N[C@@H](CC(C)C)C(=O)NCC(=O)N[C@@H](CCCNC(=N)N)C(=O)O` [Decapeptide, reference compound] (H-ISFKDMQLGR-OH), the “Agonist / antagonist character” value (C5a receptor [1]; stated in words) was “significant agonist activity”.

B1: C5a (1-68, T1M, C27S, K68C) (protein, UniProt P01031 678-745, looked up, variant T1M C27S K68C)
chain: MLQKKIEEIAAKYKHSVVKKCCYDGASVNNDETCEQRAARISLGPRCIKAFTECCVVASQLRANISHC
modifications: C5a anaphylatoxin
B1 was tested, and the IC50 (C5a receptor [1]) was 84 nM and the Ki (C5a receptor [2]; [3]) was 0.06 nM.

B2: 8 Cys: cysteine-adduct of the C5a analogue No. 8 (protein, UniProt P01031 678-751, looked up, variant T1M C27S Q71C)
C5a anaphylatoxin: MLQKKIEEIAAKYKHSVVKKCCYDGASVNNDETCEQRAARISLGPRCIKAFTECCVVASQLRANISHKDMCLGR
modifications: C5a anaphylatoxin cysteine adduct
For B2, the Ki (C5a receptor [2]; [4]) was 2.8 nM.

B3: C5a: human C5a, a 74-amino acid polypeptide; recombinant human C5a used as reference agonist (protein, UniProt P01031 678-751, looked up)
C5a anaphylatoxin: TLQKKIEEIAAKYKHSVVKKCCYDGACVNNDETCEQRAARISLGPRCIKAFTECCVVASQLRANISHKDMQLGR
modifications: C5a anaphylatoxin
B3 was tested, and the EC50 (C5a receptor [1]) was 0.07 nM.

B4: C5a (1-73, T1M, C27S, G73C) (protein, UniProt P01031 678-751, looked up, variant T1M C27S G73C)
C5a anaphylatoxin: MLQKKIEEIAAKYKHSVVKKCCYDGASVNNDETCEQRAARISLGPRCIKAFTECCVVASQLRANISHKDMQLCR
modifications: C5a anaphylatoxin truncated to residues 1-73
notes: agonist, included for comparison
B4 was tested, and the EC50 (C5a receptor [1]) was 0.6 nM and the Ki (C5a receptor [2]; [3]) was 0.03 nM.

B5: C5a (1-71, T1M, C27S, Q71R) (protein, UniProt P01031 678-751, looked up, variant T1M C27S Q71R)
C5a anaphylatoxin: MLQKKIEEIAAKYKHSVVKKCCYDGASVNNDETCEQRAARISLGPRCIKAFTECCVVASQLRANISHKDMRLGR
modifications: C5a anaphylatoxin truncated to residues 1-71
notes: as for B4
B5 was tested, and the Ki (C5a receptor [2]; [4]) was 0.35 nM.

B6: C5a (1-71, T1M, C275, Q71H) (protein, UniProt P01031 678-751, looked up, variant T1M C27S Q71H)
C5a anaphylatoxin: MLQKKIEEIAAKYKHSVVKKCCYDGASVNNDETCEQRAARISLGPRCIKAFTECCVVASQLRANISHKDMHLGR
modifications: C5a anaphylatoxin
notes: as for B4
Molecule B6 has a Ki (C5a receptor [2]; [4]) of 0.15 nM.

B7: C5a (1-71, T1M, C275, Q71D) (protein, UniProt P01031 678-751, looked up, variant T1M C27S Q71D)
C5a anaphylatoxin: MLQKKIEEIAAKYKHSVVKKCCYDGASVNNDETCEQRAARISLGPRCIKAFTECCVVASQLRANISHKDMDLGR
modifications: C5a anaphylatoxin
notes: as for B4
With B7 the Ki (C5a receptor [2]; [4]) was 8.5 nM.

B8: C5a (1-71, T1M, C275, Q71L) (protein, UniProt P01031 678-751, looked up, variant T1M C27S Q71L)
C5a anaphylatoxin: MLQKKIEEIAAKYKHSVVKKCCYDGASVNNDETCEQRAARISLGPRCIKAFTECCVVASQLRANISHKDMLLGR
modifications: C5a anaphylatoxin
notes: as for B4
With B8 the Ki (C5a receptor [2]; [4]) was 0.035 nM.

B9: C5a (1-71, T1M, C27S, H67F, Q71C) (protein, UniProt P01031 678-751, looked up, variant T1M C27S H67F Q71C)
C5a anaphylatoxin: MLQKKIEEIAAKYKHSVVKKCCYDGASVNNDETCEQRAARISLGPRCIKAFTECCVVASQLRANISFKDMCLGR
modifications: C5a anaphylatoxin truncated to residues 1-71
With B9 the “Concentration up to which tested with agonist activity not detected” value (C5a receptor [1]) was > 0.8 µM and the Ki (C5a receptor [2]; [4]) was 0.1 nM.

B10: C5a (1-71, T1M, C27S, Q71S) (protein, UniProt P01031 678-751, looked up, variant T1M C27S Q71S)
C5a anaphylatoxin: MLQKKIEEIAAKYKHSVVKKCCYDGASVNNDETCEQRAARISLGPRCIKAFTECCVVASQLRANISHKDMSLGR
modifications: C5a anaphylatoxin
notes: as for B4
In the case of B10, the Ki (C5a receptor [2]; [4]) is reported as 7.5 nM.

B11: C5a (1-72, T1M, C27S, L72C) (protein, UniProt P01031 678-751, looked up, variant T1M C27S L72C)
C5a anaphylatoxin: MLQKKIEEIAAKYKHSVVKKCCYDGASVNNDETCEQRAARISLGPRCIKAFTECCVVASQLRANISHKDMQCGR
modifications: C5a anaphylatoxin truncated to residues 1-72
In the case of B11, the IC50 (C5a receptor [1]) is reported as 621 nM, the Concentration up to which tested with agonist activity not detected (C5a receptor [1]) is reported as > 1.5 µM and the Ki (C5a receptor [2]; [4]) is reported as 0.9 nM. It also gave a Ki (C5a receptor [2]; [3]) of 0.15 nM.

B12: C5a (1-71, T1M, C27S) (protein, UniProt P01031 678-751, looked up, variant T1M C27S)
C5a anaphylatoxin: MLQKKIEEIAAKYKHSVVKKCCYDGASVNNDETCEQRAARISLGPRCIKAFTECCVVASQLRANISHKDMQLGR
modifications: C5a anaphylatoxin
notes: as for B4
For B12, the Ki (C5a receptor [2]; [4]) was 3 nM.

B13: C5a (1-70, T1M, C275, M7OC) (protein, UniProt P01031 678-747, looked up, variant T1M C27S M70C)
chain: MLQKKIEEIAAKYKHSVVKKCCYDGASVNNDETCEQRAARISLGPRCIKAFTECCVVASQLRANISHKDC
modifications: C5a anaphylatoxin
For B13, the IC50 (C5a receptor [1]) was 859 nM, the Concentration up to which tested with agonist activity not detected (C5a receptor [1]) was > 1 µM and the Ki (C5a receptor [2]; [4]) was 0.4 nM. The Ki (C5a receptor [2]; [3]) was 0.35 nM.
